Test results from patent publication US20150037348A1 (AbbVie / Abbott, published 2015).
Values joined by “and” are separate entries in the source; they are usually repeats but may differ in a detail not shown here. Equal entries are not always repeated. Where two headings read alike, the source gives them in different places.

B1: J695 (antibody, human IgG1, V domains shown)
VH: QVQLVESGGGVVQPGRSLRLSCAASGFTFSSYGMHWVRQAPGKGLEWVAFIRYDGSNKYYADSVKGRFTISRDNSKNTLYLQMNSLRAEDTAVYYCKTHGSHDNWGQGTMVTVSS
VL: QSVLTQPPSVSGAPGQRVTISCSGSRSNIGSNTVKWYQQLPGTAPKLLIYYNDQRPSGVPDRFSGSKSGTSASLAITGLQAEDEADYYCQSYDRYTHPALLFGTGTKVTVLG
notes: human IgG1 with lambda light chain
B2: J695 (antibody, V domains shown)
VH: B1 VH
VL: B1 VL
notes: Human IgG1 with lambda light chain (detected with anti-human lambda); Made in CHO or COS cells

Assays:
[1] = target: T1, recombinant human IL-12 (rhIL-12) (human, UniProt P29459 23-219; P29460 23-328); test: cell-based or functional assay
T1 sequence (looked up) 1: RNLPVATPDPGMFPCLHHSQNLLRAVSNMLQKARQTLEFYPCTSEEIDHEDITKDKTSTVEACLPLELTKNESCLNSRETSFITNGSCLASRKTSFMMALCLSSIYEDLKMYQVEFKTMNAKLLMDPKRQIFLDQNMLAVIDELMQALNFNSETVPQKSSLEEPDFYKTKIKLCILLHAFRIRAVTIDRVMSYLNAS
T1 sequence (looked up) 2: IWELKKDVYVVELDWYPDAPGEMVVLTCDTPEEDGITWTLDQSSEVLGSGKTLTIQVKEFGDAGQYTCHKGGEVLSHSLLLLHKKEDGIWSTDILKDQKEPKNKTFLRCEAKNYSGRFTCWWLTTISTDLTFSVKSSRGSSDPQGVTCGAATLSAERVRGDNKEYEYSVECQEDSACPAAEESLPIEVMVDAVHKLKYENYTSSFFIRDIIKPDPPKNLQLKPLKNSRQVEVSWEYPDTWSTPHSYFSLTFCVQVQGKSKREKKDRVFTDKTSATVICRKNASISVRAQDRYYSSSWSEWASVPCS

[2] = target: T2, recombinant murine IL-12 (mouse, UniProt P43431 23-215; P43432 23-335); test: BIAcore, COS J695 captured via goat anti-human IgG, cytokine in solution
T2 construct: rmIL12 of R&D Systems, Cat. No. 419-ML, in the BIAcore test; also called mouse IL-12; rmIL12
T2 sequence (looked up) 1: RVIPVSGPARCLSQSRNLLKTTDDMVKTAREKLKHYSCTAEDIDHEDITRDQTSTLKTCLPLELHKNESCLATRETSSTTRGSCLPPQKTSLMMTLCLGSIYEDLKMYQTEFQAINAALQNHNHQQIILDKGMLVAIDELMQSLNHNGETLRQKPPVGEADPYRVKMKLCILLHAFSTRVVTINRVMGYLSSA
T2 sequence (looked up) 2: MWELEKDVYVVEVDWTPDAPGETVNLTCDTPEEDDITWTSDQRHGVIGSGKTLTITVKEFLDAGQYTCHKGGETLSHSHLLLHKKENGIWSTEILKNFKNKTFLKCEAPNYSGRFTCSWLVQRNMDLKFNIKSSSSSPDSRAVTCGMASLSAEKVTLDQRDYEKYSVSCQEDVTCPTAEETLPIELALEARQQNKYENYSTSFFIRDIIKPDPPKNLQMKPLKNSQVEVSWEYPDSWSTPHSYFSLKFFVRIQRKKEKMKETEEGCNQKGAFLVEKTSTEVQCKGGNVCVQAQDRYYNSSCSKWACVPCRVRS
Description: (§1) Before injection of the protein and immediately afterward, HBS buffer alone flowed through each flow cell. […] Cytokines were diluted in HBS running buffer and 50 μl aliquots were injected through the immobilized protein matrices at a flow rate of 5 μl/min. […] The net difference in baseline signal and signal after completion of cytokine injection was taken to represent the binding value of the particular sample. Biosensor matrices were regenerated using 100 mM HCl before injection of the next sample. To determine the dissociation constant (off-rate), association constant (on-rate), BIAcore kinetic evaluation software (version 2.1) was used.

[3] = target: T1, recombinant human IL-12 (rhIL-12); test: receptor binding assay, 125I-hIL-12 on PHA blasts
Description: PHA blast cells isolated as described above, were washed once and resuspended in binding buffer to a cell density of 2×10⁷ cells/ml. […] The cell pellet was examined for cell bound radioactivity using a gamma counter. […] Incubations were carried out in duplicate.

[4] = target: T1, recombinant human IL-12 (rhIL-12); test: receptor binding assay, 125I-hIL-12 on PHA blasts; remark: listed apart in the source
[5] = target: T1, recombinant human IL-12 (rhIL-12); test: BIAcore, captured J695, soluble rhIL-12, mean of three experiments
Description: (§2) Three independent experiments were performed, and the values shown are averages for the three experiments. From these measurements, the apparent dissociation (kd) and association (kₐ) rate constants were derived and used to calculate a Kd value for the interaction (see Table 10).

[6] = target: T1, recombinant human IL-12 (rhIL-12); test: BIAcore SPR, rhIL-12
Description: as §1
Kd was calculated for each separate experiment and then averaged.

[7] = target: T1, recombinant human IL-12 (rhIL-12); test: cell-based or functional assay; remark: listed apart in the source
[8] = target: T1, recombinant human IL-12 (rhIL-12); test: biomolecular interaction assay (BIAcore)
Description: as §2

[9] = target: T1, recombinant human IL-12 (rhIL-12); test: cell-based or functional assay; remark: listed apart in the source
[10] = target: T3, murine IL-12 (mouse, UniProt P43431 23-215; P43432 23-335); test: neutralization bioassay with non-human IL-12 (murine 2D6 cell proliferation)
T3 construct: Purified or recombinant murine IL-12 (R&D Systems, Cat. No. 419-ML in the BIAcore test); also called mouse IL-12; rmIL12
T3 sequence (looked up) 1: T2 sequence (looked up) 1
T3 sequence (looked up) 2: T2 sequence (looked up) 2
Description: 2D6 cells were washed once and resuspended in RPMI complete medium containinγβME to a cell density of 1×10⁵ cells/ml. […] The culture contents were harvested and counted by liquid scintillation counting. All samples were assayed in duplicate.

[11] = target: dog IL-12 (dog); test: cell-based or functional assay
[12] = target: T4, chimeric IL-12 (murine p35 subunit with the human IL-12 p40 subunit) (mouse; human, UniProt P43431 23-215; P29460 23-328); test: inhibition of IFN-γ production in mice given chimeric IL-12
T4 sequence (looked up) 1: T2 sequence (looked up) 1
T4 sequence (looked up) 2: T1 sequence (looked up) 2
Description: The control hulgG1γ was given IP. at a dose of 0.05 mg/kg on days 0, 2, and 4. The mice were bled on day 5, and serum IFN-γ levels were determined by ELISA.

Row | Binder | PHA blast IC50 [1] [nM] | binding result [2] | IC50 [3] [nM] | IC50 [4] [nM] | Kd [5] | Kd [6] | IFN gamma IC50 [7] [nM] | PHA assay IC50 [7] [nM] | Kd [8] [nM] | PHA assay IC50 (M) p70:p40 1:0 [9] [M] | PHA assay IC50 (M) p70:p40 1:50 [9] [M] | binding result [10] | activity on dog IL-12 in the neutralization bioassay, against human IL-12 [11] [fold] | binding result [12]
1 | B1 | 0.0058 | no binding | 0.05 | 0.011 | 0.0974 nM and 0.014 µg/mL | 0.119 nM and 0.149 nM | 0.005 | 0.01 | 0.0974 | 1e-11 | 3.5e-11 | – | – | –
2 | B2 | – | – | – | – | – | – | – | – | – | – | – | no binding | ~35 | binds
